# Values joined by “and” are separate entries in the source; they are usually repeats but may differ in a detail not shown here. Equal entries are not always repeated.
# Biological target: spike proteins of the tested omicron
# Assay: cell-based or functional assay
binder,measurement,value
VHH R3_DC23 (VHH) VHH: QVQLQESGGGLVQAGDSLTLSCAVSGRIFSTYTMGWFRQAPGKEREFVAAVRWGAGTIYYADSMKGRFTISRDSAKNTVDLQMNSTKPEDTAVYYCGAAYVSKANYGSLWYQDSRRYDYWGQGTQVTVSS,"IC50, neutralisation of VSV spike pseudotypes",2.9 ng/mL and 5.7 ng/mL

# — US20250313611A1
